Assays:
[1] = biological target: T1, human CD89 expressed on cells (human, UniProt P24071 22-287); test: flow cytometry on 2a1.6/CD89 cells, human PMNL and PMNL of human-CD89 transgenic mice
T1 construct: whole, on cells; also called FcalphaRI; 2a1.6/CD89 cells

soluble recombinant CD89 = biological target: T2, soluble recombinant CD89 (human, UniProt P24071 22-227, limits assumed); test: ELISA
T2 construct: Soluble recombinant CD89, coated on ELISA plates, immobilised on BIAcore chips or in solution; also called sCD89; recombinant soluble CD89 antigen
T2 sequence (P24071 22-227 limits assumed): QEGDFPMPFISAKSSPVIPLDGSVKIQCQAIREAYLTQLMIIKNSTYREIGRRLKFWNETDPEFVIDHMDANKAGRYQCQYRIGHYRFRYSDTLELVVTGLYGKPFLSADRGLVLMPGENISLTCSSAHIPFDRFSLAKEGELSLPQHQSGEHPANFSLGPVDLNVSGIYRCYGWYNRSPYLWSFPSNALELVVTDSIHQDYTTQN
Description: Solid-phase ELISA based assays were employed in the binding studies. Briefly, soluble recombinant CD89 in PBS was coated onto 96-well microtiter plates (1 μg/ml) and incubated overnight at room temperature. The plates were then washed with PBS-0.2%Tween-20 (PBST) and blocked with chicken serum albumin in PBST for 1 hour at room temperature. Supernatants from the anti-CD89 producing hybridomas or purified antibody (in PBS) were added to the wells and incubated for 2 hours at room temperature. The plates were washed with PBST as above and then incubated with 50 μl of HRP-conjugated goat-anti-human for 1 hour at room temperature. After washing, 100 μl of ABTS (150 mg 2,2′-azino-bis (3-ethylbenzthiazoline-6-sulfonic acid in 500 ml of 0.1 M citric acid, pH 4.35)/H₂O₂ (10 μl 30% H₂O₂ per 10 ml of ABTS solution) chromagen/substrate solution was added to each well and the samples read with a microplate reader at a wavelength of 405 nm.
Hybridomas which produced human IgG that bound CD89 were further characterized for isotype using ELISA (Human Kappa) (same protocol described above). […] Purified antibodies were extensively dialyzed against 0.3 M sodium carbonate buffer, pH 9.5, for labeling with […] (FITC). […]

T1 sequence (P24071 22-287): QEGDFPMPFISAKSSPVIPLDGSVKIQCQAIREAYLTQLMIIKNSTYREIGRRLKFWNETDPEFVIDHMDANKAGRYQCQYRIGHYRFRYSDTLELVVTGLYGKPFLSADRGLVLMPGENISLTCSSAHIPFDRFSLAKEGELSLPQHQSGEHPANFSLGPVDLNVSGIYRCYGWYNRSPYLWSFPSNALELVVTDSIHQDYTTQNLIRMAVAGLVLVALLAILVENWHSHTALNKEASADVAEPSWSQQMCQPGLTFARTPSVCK

binding result [1]: binds
binding result (soluble recombinant CD89): binds
B1: human monoclonal antibody (HuMAb) 8.2 (antibody, V domains shown)
VH: QVQLVESGGGVVQPGRSLRLSCAASGFTFSSYAMHWVRQAPGKGLEWVAVISYDGRNKDYADSVKGRFTISRDNSKNTLYLQMNSLRAEDTAVHYCARLDWGYDAFDIWGQGTMVTVSS
VL: not shown
notes: Human IgG1 kappa from hybridoma; also called 8D2

— patent US20030082643A1 (Bristol-Myers Squibb, published 2003)
